Results reported in the supplement of paper PMC5998384.

How the values were obtained:
[1] = system: HeLa Kyoto; test: thermal stability score vs G1/S (z-score of summed log2 fold changes over temperatures); higher = more thermally stable than in G1/S
[2] = system: HeLa Kyoto; test: melting temperature (median over replicates), in situ; higher = more thermally stable
[3] = cell cycle stage: early G1 (4.5 h after nocodazole release)
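For melting temperature (median over replicates), in situ in this document: HeLa Kyoto cells synchronized by double thymidine or nocodazole block, proteins quantified by TMT10plex mass spectrometry, three independent biological replicates.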
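For thermal stability score vs G1/S (z-score of summed log2 fold changes over temperatures) in this document: synchronized HeLa Kyoto cells, proteins quantified by TMT10plex mass spectrometry, three biological replicates, mitosis taken 0.5 h after nocodazole release, G1/S directly after double thymidine block.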

Row | Sequence | thermal stability score [1, 3] | thermal stability score ([1]; cell cycle stage: mitosis) | melting temperature ([2]; cell cycle stage: G1/S) | melting temperature ([2]; cell cycle stage: mitosis)
1 | MEVGGDTAAPAPGGAEDLEDTQFPSEEAREGGGVHAVPPDPEDEGLEETGSKDKDQPPSPSPPPQSEALSSTSRLWSPAAPENSPTCSPESSSGGQGGDPSDEEWRSQRKHVFVLSEAGKPIYSRYGSVEALSATMGVMTALVSFVQSAGDAIRAIYAEDHKLVFLQQGPLLLVAMSRTSQSAAQLRGELLAVHAQIVSTLTRASVARIFAHKQNYDLRRLLAGSERTLDRLLDSMEQDPGALLLGAVRCVPLARPLRDALGALLRRCTAPGLALSVLAVGGRLITAAQERNVLAECRLDPADLQLLLDWVGAPAFAAGEAWAPVCLPRFNPDGFFYAYVARLDAMPVCLLLLGTQREAFHAMAACRRLVEDGMHALGAMRALGEAASFSNASSASAPAYSVQAVGAPGLRHFLYKPLDIPDHHRQLPQFTSPELEAPYSREEERQRLSDLYHRLHARLHSTSRPLRLIYHVAEKETLLAWVTSKFELYTCLSPLVTKAGAILVVTKLLRWVKKEEDRLFIRYPPKYSTPPATSTDQAAHNGLFTGL [MON1B] | -0.93 | -0.544 | 52.9 °C | 52.7 °C
2 | MFTSEKGVVEEWLSEFKTLPETSLPNYATNLKDKSSLVSSLYKVIQEPQSELLEPVCHQLFEFYRSGEEQLLQFTLQFLPELIWCYLAVSASRNVHSSGCIEALLLGVYNLEIVDKQGHTKVLSFTIPSLSKPSVYHEPSSIGSMALTESALSQHGLSKVVYSGPHPQREMLTAQNRFEVLTFLLLCYNAALTYMPSVSLQSLCQICSRICVCGYPRQHVRKYKGISSRIPVSSGFMVQMLTGIYFAFYNGEWDLAQKALDDIIYRAQLELYPEPLLVANAIKASLPHGPMKSNKEGTRCIQVEITPTSSRISRNAVTSMSIRGHRWKRHGNTELTGQEELMEISEVDEGFYSRAASSTSQSGLSNSSHNCSNKPSIGKNHRRSGGSKTGGKEKETTGESCKDHFARKQTQRAQSENLELLSLKRLTLTTSQSLPKPSSHGLAKTAATVFSKSFEQVSGVTVPHNPSSAVGCGAGTDANRFSACSLQEEKLIYVSERTELPMKHQSGQQRPPSISITLSTD [FAM126A] | 0.141 | 0.0377 | – | 50.9 °C
3 | MLCRLGGRWLRPLPALQLWARDLPLAPVPTSGAKRPTLPVWAVAPVSAVHANGWYEALAASSPVRVAEEVLLGVHAATGLPWWGSILLSTVALRGAVTLPLAAYQHYILAKVENLQPEIKTIARHLNQEVAVRANQLGWSKRDARLTYLKNMRRLISELYVRDNCHPFKATVLVWIQLPMWIFMSFALRNLSTGAAHSEGFSVQEQLATGGILWFPDLTAPDSTWILPISVGVINLLIVEICALQKIGMSRFQTYITYFVRAMSVLMIPIAATVPSSIVLYWLCSSFVGLSQNLLLRSPGFRQLCRIPSTKSDSETPYKDIFAAFNTKFISRK [COX18] | 0.867 | -0.575 | – | 57.1 °C
4 | MMKLKSNQTRTYDGDGYKKRAACLCFRSESEEEVLLVSSSRHPDRWIVPGGGMEPEEEPSVAAVREVCEEAGVKGTLGRLVGIFENQERKHRTYVYVLIVTEVLEDWEDSVNIGRKREWFKIEDAIKVLQYHKPVQASYFETLRQGYSANNGTPVVATTYSVSAQSSMSGIR [NUDT3] | -1.86 | -1.36 | 53.4 °C | 54.7 °C
5 | MPGRSCVALVLLAAAVSCAVAQHAPPWTEDCRKSTYPPSGPTYRGAVPWYTINLDLPPYKRWHELMLDKAPVLKVIVNSLKNMINTFVPSGKIMQVVDEKLPGLLGNFPGPFEEEMKGIAAVTDIPLGEIISFNIFYELFTICTSIVAEDKKGHLIHGRNMDFGVFLGWNINNDTWVITEQLKPLTVNLDFQRNNKTVFKASSFAGYVGMLTGFKPGLFSLTLNERFSINGGYLGILEWILGKKDVMWIGFLTRTVLENSTSYEEAKNLLTKTKILAPAYFILGGNQSGEGCVITRDRKESLDVYELDAKQGRWYVVQTNYDRWKHPFFLDDRRTPAKMCLNRTSQENISFETMYDVLSTKPVLNKLTVYTTLIDVTKGQFETYLRDCPDPCIGW [ASAH1] | -1.25 | -2.17 | 55.8 °C | 55.9 °C
6 | MPKNKKRNTPHRGSSAGGGGSGAAAATAATAGGQHRNVQPFSDEDASIETMSHCSGYSDPSSFAEDGPEVLDEEGTQEDLEYKLKGLIDLTLDKSAKTRQAALEGIKNALASKMLYEFILERRMTLTDSIERCLKKGKSDEQRAAAALASVLCIQLGPGIESEEILKTLGPILKKIICDGSASMQARQTCATCFGVCCFIATDDITELYSTLECLENIFTKSYLKEKDTTVICSTPNTVLHISSLLAWTLLLTICPINEVKKKLEMHFHKLPSLLSCDDVNMRIAAGESLALLFELARGIESDFFYEDMESLTQMLRALATDGNKHRAKVDKRKQRSVFRDVLRAVEERDFPTETIKFGPERMYIDCWVKKHTYDTFKEVLGSGMQYHLQSNEFLRNVFELGPPVMLDAATLKTMKISRFERHLYNSAAFKARTKARSKCRDKRADVGEFF [IFRD1] | 0.75 | 1.11 | 56.4 °C | –
7 | MQPPGPPPAYAPTNGDFTFVSSADAEDLSGSIASPDVKLNLGGDFIKESTATTFLRQRGYGWLLEVEDDDPEDNKPLLEELDIDLKDIYYKIRCVLMPMPSLGFNRQVVRDNPDFWGPLAVVLFFSMISLYGQFRVVSWIITIWIFGSLTIFLLARVLGGEVAYGQVLGVIGYSLLPLIVIAPVLLVVGSFEVVSTLIKLFGVFWAAYSAASLLVGEEFKTKKPLLIYPIFLLYIYFLSLYTGV [YIPF4] | -0.481 | -2.96 | 57.7 °C | 56.1 °C
8 | MREYKVVVLGSGGVGKSALTVQFVTGSFIEKYDPTIEDFYRKEIEVDSSPSVLEILDTAGTEQFASMRDLYIKNGQGFILVYSLVNQQSFQDIKPMRDQIIRVKRYERVPMILVGNKVDLEGEREVSYGEGKALAEEWSCPFMETSAKNKASVDELFAEIVRQMNYAAQPNGDEGCCSACVIL [RAP2B] | -0.0087 | 0.542 | 59.2 °C | 60.7 °C
